# Experimental data reported in IntAct's records for PubMed 11964151.
# B1: Galactose/lactose metabolism regulatory protein GAL80 (Saccharomyces cerevisiae), P04387 (parent)
# chain: MDYNKRSSVSTVPNAAPIRVGFVGLNAAKGWAIKTHYPAILQLSSQFQITALYSPKIETSIATIQRLKLSNATAFPTLESFASSSTIDMIVIAIQVASHYEVVMPLLEFSKNNPNLKYLFVEWALACSLDQAESIYKAAAERGVQTIISLQGRKSPYILRAKELISQGYIGDINSIEIAGNGGWYGYERPVKSPKYIYEIGNGVDLVTTTFGHTIDILQYMTSSYFSRINAMVFNNIPEQELIDERGNRLGQRVPKTVPDHLLFQGTLLNGNVPVSCSFKGGKPTKKFTKNLVIDIHGTKGDLKLEGDAGFAEISNLVLYYSGTRANDFPLANGQQAPLDPGYDAGKEIMEVYHLRNYNAIVGNIHRLYQSISDFHFNTKKIPELPSQFVMQGFDFEGFPTLMDALILHRLIESVYKSNMMGSTLNVSNISHYSL
# partner: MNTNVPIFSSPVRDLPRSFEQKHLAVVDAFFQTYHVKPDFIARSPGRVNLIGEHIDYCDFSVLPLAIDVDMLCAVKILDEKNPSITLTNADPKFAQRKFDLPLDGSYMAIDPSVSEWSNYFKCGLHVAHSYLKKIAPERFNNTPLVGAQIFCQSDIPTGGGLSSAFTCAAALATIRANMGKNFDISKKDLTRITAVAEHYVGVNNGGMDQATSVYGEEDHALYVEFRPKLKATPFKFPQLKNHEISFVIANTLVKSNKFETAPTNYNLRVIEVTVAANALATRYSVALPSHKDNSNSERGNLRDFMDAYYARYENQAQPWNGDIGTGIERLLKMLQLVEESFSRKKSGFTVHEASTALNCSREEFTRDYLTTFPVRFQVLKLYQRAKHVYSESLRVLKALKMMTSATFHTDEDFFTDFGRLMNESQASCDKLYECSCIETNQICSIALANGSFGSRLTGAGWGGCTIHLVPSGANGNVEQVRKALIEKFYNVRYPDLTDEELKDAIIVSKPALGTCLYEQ
# Variants of: B1
# Details: with gal3_yeast GAL3, P13045
row,effect of a mutation on the interaction,Variant
1,decreasing interaction strength,E351K
